Laboratory results reported in paper PMC3602351.

Target: human ALDH2 T244A substituted enzyme (human) (UniProt P05091)
Assay: crystal structure

“human ALDH2 T244A substituted enzyme (from UniProt P05091 18-517)” was tested, and the stoichiometry N was 4.
